Laboratory results taken from patent publication US20210388087A1 (Chugai, published 2021).
Substitutions are numbered along the chain they refer to. One block for each binder: values may come before it.

Molecular target: T1, Human CD137 ECD (human)
T1 construct: entry includes C-terminal His-tag and biotin acceptor peptide; also called human CD137 extracellular domain; 4-1BB
Assay: Biacore SPR, vs parent H183/L072

T1 sequence (chain, as listed by the source limits assumed): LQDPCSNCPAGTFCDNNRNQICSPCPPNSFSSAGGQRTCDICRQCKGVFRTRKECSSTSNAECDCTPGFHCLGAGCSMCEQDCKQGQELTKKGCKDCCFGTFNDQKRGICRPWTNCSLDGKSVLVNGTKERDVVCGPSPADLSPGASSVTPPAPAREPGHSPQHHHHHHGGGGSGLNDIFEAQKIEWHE

B1: H183/L072 VL R29L (antibody, name in Kabat numbering, V domains shown)
VH: QVQLVESGGGLVQPGRSLRLSCAASGFTFSNAWMHWVRQAPGKGLEWVAQIKDKGNAYAAYYAPSVKGRFTISRDDSKNSIYLQMNSLKTEDTAVYYCHYVHYASASTVLPAFGVDAWGQGTTVTVSS
VL: DIVMTQSPLSLPVTPGEPASISCQASQELVHMNLNTYLHWYQQKPGQAPRLLIYKVSNRFPGVPDRFSGSGSGTDFTLKISRVEAEDVGVYYCAQGTSVPFTFGQGTKLEIK
notes: Dual-Ig
fold change of affinity: 0.9 fold

B4: H183/L072 VL R29V (antibody, name in Kabat numbering, V domains shown)
VH: B1 VH
VL: B1 VL with L34V
notes: Dual-Ig
fold change of affinity: 0.3 fold

B6: H183/L072 VL R29T (antibody, name in Kabat numbering, V domains shown)
VH: B1 VH
VL: B1 VL with L34T
notes: Dual-Ig
fold change of affinity: 0.8 fold

B7: H183/L072 VL R29N (antibody, name in Kabat numbering, V domains shown)
VH: B1 VH
VL: B1 VL with L34N
notes: Dual-Ig
fold change of affinity: 0.9 fold

B8: H183/L072 VL R29W (antibody, name in Kabat numbering, V domains shown)
VH: B1 VH
VL: B1 VL with L34W
notes: Dual-Ig
fold change of affinity: 0.6 fold

B10: H183/L072 VL R54D (antibody, name in Kabat numbering, V domains shown)
VH: B1 VH
VL: B1 VL with L34R, R59D
notes: Dual-Ig
fold change of affinity: 0.3 fold

B12: H183/L072 VL R29Y (antibody, name in Kabat numbering, V domains shown)
VH: B1 VH
VL: B1 VL with L34Y
notes: Dual-Ig
fold change of affinity: 0.6 fold

B13: H183/L072 VL R54G (antibody, name in Kabat numbering, V domains shown)
VH: B1 VH
VL: B1 VL with L34R, R59G
notes: Dual-Ig
fold change of affinity: 0.9 fold

B17: H183/L072 VL R29M (antibody, name in Kabat numbering, V domains shown)
VH: B1 VH
VL: B1 VL with L34M
notes: Dual-Ig
fold change of affinity: 0.9 fold

B18: H183/L072 VL R54F (antibody, name in Kabat numbering, V domains shown)
VH: B1 VH
VL: B1 VL with L34R, R59F
notes: Dual-Ig
fold change of affinity: 0.3 fold

B19: H183/L072 VL R29Q (antibody, name in Kabat numbering, V domains shown)
VH: B1 VH
VL: B1 VL with L34Q
notes: Dual-Ig
fold change of affinity: 0.9 fold

B20: H183/L072 VL R54A (antibody, name in Kabat numbering, V domains shown)
VH: B1 VH
VL: B1 VL with L34R, R59A
notes: Dual-Ig
fold change of affinity: 0.9 fold

B21: H183/L072 VL R29S (antibody, name in Kabat numbering, V domains shown)
VH: B1 VH
VL: B1 VL with L34S
notes: Dual-Ig
fold change of affinity: 0.9 fold

B22: H183/L072 VL R29P (antibody, name in Kabat numbering, V domains shown)
VH: B1 VH
VL: B1 VL with L34P
notes: Dual-Ig
fold change of affinity: 0.2 fold

B29: H183/L072 VL R54E (antibody, name in Kabat numbering, V domains shown)
VH: B1 VH
VL: B1 VL with L34R, R59E
notes: Dual-Ig
fold change of affinity: 0.6 fold

Other lines, results leading:

fold change of affinity: 0.2 fold
B2: H183/L072 VL S26I (antibody, name in Kabat numbering, V domains shown)
VH: B1 VH
VL: B1 VL with S26I, L34R
notes: Dual-Ig

fold change of affinity: 0.9 fold
B3: H183/L072 VL R54S (antibody, name in Kabat numbering, V domains shown)
VH: B1 VH
VL: B1 VL with L34R, R59S
notes: Dual-Ig

fold change of affinity: 1 fold
B5: H183/L072 VL R54K (antibody, name in Kabat numbering, V domains shown)
VH: B1 VH
VL: B1 VL with L34R, R59K
notes: Dual-Ig

fold change of affinity: 0.9 fold
B9: H183/L072 VL R54P (antibody, name in Kabat numbering, V domains shown)
VH: B1 VH
VL: B1 VL with L34R, R59P
notes: Dual-Ig

fold change of affinity: 0.9 fold
B11: H183/L072 VL S26G (antibody, name in Kabat numbering, V domains shown)
VH: B1 VH
VL: B1 VL with S26G, L34R
notes: Dual-Ig

fold change of affinity: 0.4 fold
B14: H183/L072 VL R54W (antibody, name in Kabat numbering, V domains shown)
VH: B1 VH
VL: B1 VL with L34R, R59W
notes: Dual-Ig

fold change of affinity: 1 fold
B15: H183/L072 VL R54I (antibody, name in Kabat numbering, V domains shown)
VH: B1 VH
VL: B1 VL with L34R, R59I
notes: Dual-Ig

fold change of affinity: 0.6 fold
B16: H183/L072 VL R54H (antibody, name in Kabat numbering, V domains shown)
VH: B1 VH
VL: B1 VL with L34R, R59H
notes: Dual-Ig

fold change of affinity: 0.8 fold
B23: H183/L072 VL S26E (antibody, name in Kabat numbering, V domains shown)
VH: B1 VH
VL: B1 VL with S26E, L34R
notes: Dual-Ig

fold change of affinity: 0.8 fold
B24: H183/L072 VL S26D (antibody, name in Kabat numbering, V domains shown)
VH: B1 VH
VL: B1 VL with S26D, L34R
notes: Dual-Ig

fold change of affinity: 0.5 fold
B25: H183/L072 VL R54M (antibody, name in Kabat numbering, V domains shown)
VH: B1 VH
VL: B1 VL with L34R, R59M
notes: Dual-Ig

fold change of affinity: 0.8 fold
B26: H183/L072 VL R54Q (antibody, name in Kabat numbering, V domains shown)
VH: B1 VH
VL: B1 VL with L34R, R59Q
notes: Dual-Ig

fold change of affinity: 2.5 fold
B27: H183/L072 VL R54T (antibody, name in Kabat numbering, V domains shown)
VH: B1 VH
VL: B1 VL with L34R, R59T
notes: Dual-Ig

fold change of affinity: 0.5 fold
B28: H183/L072 VL S26K (antibody, name in Kabat numbering, V domains shown)
VH: B1 VH
VL: B1 VL with S26K, L34R
notes: Dual-Ig

fold change of affinity: 0.2 fold
B30: H183/L072 VL S26F (antibody, name in Kabat numbering, V domains shown)
VH: B1 VH
VL: B1 VL with S26F, L34R
notes: Dual-Ig

fold change of affinity: 0.9 fold
B31: H183/L072 VL R54L (antibody, name in Kabat numbering, V domains shown)
VH: B1 VH
VL: B1 VL with L34R, R59L
notes: Dual-Ig

fold change of affinity: 0.2 fold
B32: H183/L072 VL S26H (antibody, name in Kabat numbering, V domains shown)
VH: B1 VH
VL: B1 VL with S26H, L34R
notes: Dual-Ig

fold change of affinity: 1.3 fold
B33: H183/L072 VL R54V (antibody, name in Kabat numbering, V domains shown)
VH: B1 VH
VL: B1 VL with L34R, R59V
notes: Dual-Ig
